Three molecules from patent US20110008323A1 can be followed below.

Assay [1] has as its target T1, human Cadherin-11 expressed on 431-D-11 cells (human) (UniProt P55287).
T1 sequence: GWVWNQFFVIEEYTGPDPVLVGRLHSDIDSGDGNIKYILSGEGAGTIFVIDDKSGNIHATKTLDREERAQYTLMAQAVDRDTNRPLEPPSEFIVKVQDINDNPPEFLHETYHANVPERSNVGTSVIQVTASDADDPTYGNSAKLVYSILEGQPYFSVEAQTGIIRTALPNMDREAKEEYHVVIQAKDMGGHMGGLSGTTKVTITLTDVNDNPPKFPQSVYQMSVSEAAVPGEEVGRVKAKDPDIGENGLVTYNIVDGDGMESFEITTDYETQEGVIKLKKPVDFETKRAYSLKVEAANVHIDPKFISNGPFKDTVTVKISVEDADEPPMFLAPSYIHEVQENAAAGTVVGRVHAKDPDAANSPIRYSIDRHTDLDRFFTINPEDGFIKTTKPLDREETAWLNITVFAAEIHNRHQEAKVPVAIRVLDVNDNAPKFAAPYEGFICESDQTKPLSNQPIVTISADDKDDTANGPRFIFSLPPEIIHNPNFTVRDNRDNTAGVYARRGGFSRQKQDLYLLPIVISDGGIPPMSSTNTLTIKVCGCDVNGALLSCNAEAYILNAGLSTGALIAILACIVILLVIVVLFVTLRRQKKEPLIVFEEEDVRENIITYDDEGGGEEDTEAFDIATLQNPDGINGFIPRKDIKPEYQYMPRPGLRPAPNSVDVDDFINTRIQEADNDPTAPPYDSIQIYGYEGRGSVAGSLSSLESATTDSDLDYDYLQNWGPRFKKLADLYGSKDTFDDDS
In words: cell-based or functional assay.

Assay [2] has as its target T1, human Cadherin-11 expressed on 431-D-11 cells (human). As to the kind of experiment: cell-based or functional assay. The source holds these as a separate data set.
The target of assay [3] is T2, Cad-11 EC1 domain peptide (first 33 amino acids of the EC1 domain), specificity ELISA of Example 5 (human).
T2 sequence (peptide): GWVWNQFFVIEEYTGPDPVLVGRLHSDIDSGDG
In words: ELISA on EC1 domain peptides (first 33 amino acids).

The target of assay [4] is T3, Cad-8 EC1 domain peptide (region overlapping the G1-G33 region of the Cad-11 EC1 domain) (UniProt P55286).
T3 sequence (peptide, conjugated to biotin, looked up): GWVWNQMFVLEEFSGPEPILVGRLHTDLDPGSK
In words: ELISA on EC1 domain peptides, against the Cad-11 peptide. For orientation: ELISA stands for enzyme-linked immunosorbent assay.

For the molecule “human Cad-11-EC1-5-Fc fusion protein (from UniProt P55287 54-609)”, the inhibition of Cad-11 mediated cell aggregation in assay [1] stood at 100 µg/mL.

For the molecule “human Cad-11-EC1-hIgG2-Fc1 fusion protein (Fc fusion)”, in assay [1], the inhibition of Cad-11 mediated cell aggregation was determined as 3 µg/mL and the inhibition of aggregation of Cad-11 expressing 431-D-11 cells at 40 min amounted to 3 µg/mL.

B1: H1M1 anti-Cad-11 antibody (produced by hybridoma H1M1, ATCC accession number PTA-9699) (antibody, from a related filing, V domains shown)
VH: EVQLQQSGPELVKPGASVKISCKASGYSFTGYFMNWVKQSHGKSLEWIGRINPYTGDTFYNQKFKGKATLTVDKSSSTAHMELLSLSSEDSAVYYCGRLGSRYWYFDVWGAGTTVTVSS
VL: DVLMTQTPLSLPVSLGDQASISCRSSQSIIHSNGNTYLEWYLQKPGQSPKLLIYKVSNRFSGVPDRFTGSGSGTDFTLKISRVEAEDLGVYYCFQGSHVPWTFGGGTKLEIK
With B1, the inhibition of aggregation of Cad-11-expressing A-431-D cells (photographs, overnight culture) in assay [2] is 30 µg/mL. This molecule also showed a fold higher binding to Cad-11 than to any of the other cadherins tested in assay [3] of more than 100 fold. The molecule also gave a fold lower binding than to Cad-11 in assay [4] of 365 fold.
